Measured values from publication PMC8018021 (Proceedings of the National Academy of Sciences of the …, 2021).
“And” between values parts separate entries of the source, which are not always exact repeats. Equal entries are not always repeated. Values belong to the molecule of their own block, whether it stands above or below them.

Key:
PGAM–PirC complex = target: T1, PGAM–PirC complex (Synechocystis sp. PCC 6803, UniProt P74507); experiment: bio-layer interferometry, inhibition of PirC–PGAM binding
T1 sequence (P74507 1-532): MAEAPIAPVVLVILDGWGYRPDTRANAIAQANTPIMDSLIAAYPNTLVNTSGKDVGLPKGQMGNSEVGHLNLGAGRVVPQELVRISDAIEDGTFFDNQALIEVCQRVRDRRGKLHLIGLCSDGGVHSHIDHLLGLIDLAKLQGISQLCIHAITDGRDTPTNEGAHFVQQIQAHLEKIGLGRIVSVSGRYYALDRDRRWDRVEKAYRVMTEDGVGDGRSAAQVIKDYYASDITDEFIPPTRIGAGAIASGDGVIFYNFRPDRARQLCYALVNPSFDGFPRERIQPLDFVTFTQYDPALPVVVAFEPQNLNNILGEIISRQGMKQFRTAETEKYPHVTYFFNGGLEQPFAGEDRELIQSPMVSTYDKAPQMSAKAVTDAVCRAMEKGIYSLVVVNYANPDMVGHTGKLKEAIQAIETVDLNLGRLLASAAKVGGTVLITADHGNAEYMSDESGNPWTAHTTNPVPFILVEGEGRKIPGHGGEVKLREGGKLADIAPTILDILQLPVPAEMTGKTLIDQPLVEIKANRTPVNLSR
T1 sequence (P77971 53-164 partner): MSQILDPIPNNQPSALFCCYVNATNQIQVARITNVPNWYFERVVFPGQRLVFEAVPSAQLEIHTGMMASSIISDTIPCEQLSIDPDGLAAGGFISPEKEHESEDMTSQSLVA

PII–PirC complex [1] = target: T2, PII–PirC complex (Synechocystis sp. PCC 6803, UniProt Q55247); experiment: bio-layer interferometry, enhancement of PirC–PII binding; conditions: effector promotes PII–PirC complex
PII–PirC complex [2] = target: T2, PII–PirC complex; experiment: bio-layer interferometry, inhibition of PirC–PII binding
[3] = target: T3, PII signalling protein, C-terminal His8-tagged (Synechocystis sp. PCC 6803, UniProt Q55247 1-112); experiment: SPR
[4] = target: T3, PII signalling protein, C-terminal …; experiment: BLI
purified protein = substrate: O=C(O)[C@H](O)COP(=O)(O)O; experiment: purified protein; format: biochemical, Synechocystis sp. PCC 6803; conditions: no PirC, pH 8.0, 30 °C, 5 mM MgSO4, 0.4 mM MnCl2, 100 mM KCl

T3 sequence (Q55247 whole entry): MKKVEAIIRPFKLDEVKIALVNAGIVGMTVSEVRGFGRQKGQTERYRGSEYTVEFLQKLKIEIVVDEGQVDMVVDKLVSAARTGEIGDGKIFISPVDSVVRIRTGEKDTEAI
T2 sequence (Q55247 whole entry, one chain of several): as the sequence (Q55247 whole entry) above

Molecule: O=C(O)[C@@H](CO)OP(=O)(O)O [2-PGA]
- IC50 (PGAM–PirC complex): 970 ± 1 µM

Molecule: Nc1ncnc2c1ncn2[C@@H]1O[C@H](COP(=O)(O)OP(=O)(O)O)[C@@H](O)[C@H]1O [ADP]
- bio-layer interferometry, enhancement of PirC-PII binding (PII–PirC complex [1]; 2 mM ADP): In the presence of ATP or ADP, PirC binding to PII strongly increased

Molecule: Nc1ncnc2c1ncn2[C@@H]1O[C@H](COP(=O)(O)OP(=O)(O)OP(=O)(O)O)[C@@H](O)[C@H]1O [ATP]
- bio-layer interferometry, enhancement of PirC-PII binding (PII–PirC complex [1]; 2 mM ATP): In the presence of ATP or ADP, PirC binding to PII strongly increased

Molecule: O=C(O)CCC(=O)C(=O)O [2-OG]
- IC50 (PII–PirC complex [2]): 123.4 ± 1.1 µM

B2: PGAM (Synechocystis sp. PCC 6803 substr. Kazusa) (protein)
chain: T1 sequence (P74507 1-532)
- Km (purified protein): 126.6 ± 6.4 µM
- Vmax (purified protein): 2.85 µmol/min/mg
- kcat (purified protein): 2.78 ± 0.03 s⁻¹
- kcat/Km (purified protein): 22000 M⁻¹ s⁻¹

Continued, values first:

- IC50 (PGAM–PirC complex): 2400 ± 1 µM
Molecule: O=C(O)[C@H](O)COP(=O)(O)O [3-PGA]

- stoichiometry N [3]: ~1 PirC monomer per PII trimer
- Kd [4]: 0.0373 µM and 0.0141 µM
B1: PirC (PII-interacting regulator of carbon metabolism; product of sll0944), short 112-amino-acid variant, strep-tagged (natural protein)
chain: T1 sequence (P77971 53-164 partner)
